# Data reported in patent publication US8168591 (University of California, dated 2012).
# B1: FGF-1 Glu102/Tyr109/Asn110 to Ala mutant (3×A) (ligand)
# chain: FNLPPGNYKKPKLLYCSNGGHFLRILPDGTVDGTRDRSDQHIQLQLSAESVGEVYIKSTETGQYLAMDTDGLLYGSQTPNEECLFLARLEENHAATYISKKHAEKNWFVGLKKNGSCKRGPRTHYGQKAILFLPLPVSSD
# notes: also called 3xA; E1 02A/Y109A/Q110A
# Target: T1, recombinant soluble integrin αvβ3 (UniProt P06756 31-992; P05106 27-718)
# T1 construct: extracellular domain; 'extracellular domain' is my reading of that; Made in CHO K1 cells and purified on Ni-NTA; The docking simulation used PDB 1L5G; also called soluble αvβ3
# Assay: Table 2 grade, αvβ3 binding (ELISA-type assay with soluble αvβ3)
# T1 sequence (P06756 31-992, chain 1 of 2): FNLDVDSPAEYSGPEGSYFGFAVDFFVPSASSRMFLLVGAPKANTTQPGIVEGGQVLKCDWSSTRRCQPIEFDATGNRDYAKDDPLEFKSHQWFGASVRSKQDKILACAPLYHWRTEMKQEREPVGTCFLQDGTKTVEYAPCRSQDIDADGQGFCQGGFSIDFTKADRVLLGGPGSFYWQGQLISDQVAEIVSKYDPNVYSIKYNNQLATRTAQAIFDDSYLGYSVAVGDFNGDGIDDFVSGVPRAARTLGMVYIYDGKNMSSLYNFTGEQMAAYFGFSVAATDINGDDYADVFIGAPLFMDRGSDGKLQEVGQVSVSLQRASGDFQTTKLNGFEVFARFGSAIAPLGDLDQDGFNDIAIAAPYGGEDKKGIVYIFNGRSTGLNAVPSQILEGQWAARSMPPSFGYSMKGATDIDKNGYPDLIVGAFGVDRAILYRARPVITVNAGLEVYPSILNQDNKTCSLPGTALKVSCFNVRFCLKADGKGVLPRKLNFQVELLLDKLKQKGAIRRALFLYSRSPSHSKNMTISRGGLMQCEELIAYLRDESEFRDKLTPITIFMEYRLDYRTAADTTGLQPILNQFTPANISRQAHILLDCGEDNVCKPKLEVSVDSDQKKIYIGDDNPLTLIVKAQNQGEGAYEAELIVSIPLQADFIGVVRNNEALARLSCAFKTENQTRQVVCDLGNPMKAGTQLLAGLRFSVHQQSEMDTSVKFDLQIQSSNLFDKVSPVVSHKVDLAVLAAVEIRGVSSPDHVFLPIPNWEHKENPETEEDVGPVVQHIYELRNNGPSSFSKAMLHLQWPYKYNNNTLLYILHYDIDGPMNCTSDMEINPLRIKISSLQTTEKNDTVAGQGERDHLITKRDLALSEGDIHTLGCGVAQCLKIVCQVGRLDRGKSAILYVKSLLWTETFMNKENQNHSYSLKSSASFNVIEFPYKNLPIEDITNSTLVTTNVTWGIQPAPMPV
# T1 sequence (P05106 27-718, chain 2 of 2): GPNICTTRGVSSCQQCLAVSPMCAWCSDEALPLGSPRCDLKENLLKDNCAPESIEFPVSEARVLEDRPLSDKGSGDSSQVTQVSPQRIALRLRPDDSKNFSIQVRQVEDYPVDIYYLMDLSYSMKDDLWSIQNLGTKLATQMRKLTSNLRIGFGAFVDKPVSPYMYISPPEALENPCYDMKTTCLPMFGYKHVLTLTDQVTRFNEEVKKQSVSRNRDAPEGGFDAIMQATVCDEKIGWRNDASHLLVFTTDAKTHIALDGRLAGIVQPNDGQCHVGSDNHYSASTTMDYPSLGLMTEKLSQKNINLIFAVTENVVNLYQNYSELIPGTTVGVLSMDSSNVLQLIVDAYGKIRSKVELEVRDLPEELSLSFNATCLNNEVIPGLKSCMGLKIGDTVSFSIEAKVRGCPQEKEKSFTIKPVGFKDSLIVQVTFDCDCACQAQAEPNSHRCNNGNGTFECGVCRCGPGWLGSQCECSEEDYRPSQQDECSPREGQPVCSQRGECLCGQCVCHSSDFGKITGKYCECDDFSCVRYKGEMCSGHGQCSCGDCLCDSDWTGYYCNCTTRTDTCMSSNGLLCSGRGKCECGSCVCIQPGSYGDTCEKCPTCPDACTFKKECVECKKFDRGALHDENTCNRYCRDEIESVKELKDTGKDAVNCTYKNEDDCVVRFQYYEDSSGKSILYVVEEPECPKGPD
binder,measurement,value
B1,binding result,binds
